{
  "source": "patent US20140017790A1",
  "about": "“CONTROL AGENT FOR CONTROLLING UNDIFFERENTIATED STATE AND USE THEREOF” (RIKEN, priority 2011, published 2014)",
  "molecules": {"B1": {"name": "CCL2: mouse recombinant CCL2 (MCP-1, #479-JE-010, R&D Systems); in Examples 1, 3, 4(1), 5 mouse CCL2 (SEQ ID NO: 3) overexpressed from Ccl2 expression vector (protein, listed as Mus musculus)", "chain": "MQVPVMLLGLLFTVAGWSIHVLAQPDAVNAPLTCCYSFTSKMIPMSRLESYKRITSSRCPKEAVVFVTKLKREVCADPKKEWVQTYIKNLDRNQMRSEPTTLFKTASALRSSAPLNVKLTRKSEANASTTFSTTTSSTSVGVTSVTVN"}},
  "format_in_all_cases": "cell-based",
  "key": {"STAT3": {"test_system": "STAT3", "assay": "Western blotting, phosphorylation of STAT3 in human iPS cells", "details": "feeder conditions, 6 days, negative control (bFGF) = 1", "procedure": "The human iPS cells were cultured under feeder conditions in the same manner as in Example 8, and the feeder cells were removed 6 days after the start of the culture. Then, in the same manner as in Example 3, the cultured human iPS cells were washed, suspended, homogenized, and centrifuged to collect the supernatant as a cell extract. Thereafter, a target protein was detected by Western blotting in the same manner as in Example 3, except that the above supernatant was used. Furthermore, as a negative control, the target protein was detected by carrying out the same procedures except that bFGF was added instead of the CCL2.\nThen, the ratio of the phosphorylated STAT3 to the non-phosphorylated STAT3 (pSTAT3/STAT3) was determined. Assuming that the value of pSTAT3/STAT3 in the negative control was “1”, the relative value was calculated."}, "human iPS cells [1]": {"test_system": "human iPS cells", "assay": "phase-contrast morphology of human iPS cells with JAK or PI3K inhibitor", "details": "inhibitor not added (DMSO added), 6 days; bFGF(+)/CCL2(-) or bFGF(-)/CCL2(+)", "procedure": "As a JAK inhibitor, a JAK inhibitor I (Merck) was used. As PI3K inhibitor, the same LY294002 as used in Example 4 was used. Human iPS cells were cultured for 6 days under feeder conditions in the same manner as in the above item (1), except that not only the CCL2 but also the JAK inhibitor or the PI3K inhibitor further was added to the medium. In the medium, the concentration of the Jak inhibitor was set to 10 ng/ml, and the concentration of the PI3K inhibitor was set to 5 ng/ml.\nFurthermore, as a control, the cells were cultured in the same manner as in the above using the following media, respectively: a medium containing bFGF instead of the CCL2 and containing DMSO (5 ng/ml) instead of the inhibitor; and a medium containing bFGF (5 ng/ml) instead of the CCL2 and containing the inhibitor.\nThe phase-contrast micrographs show the results obtained under the conditions of, from the above: the inhibitor not added (DMSO added); the JAK inhibitor added; and the PI3K inhibitor added."}, "human iPS cells [2]": {"test_system": "human iPS cells", "assay": "cell adhesion and growth, number of human iPS cells over time", "details": "bFGF(-)/CCL2(+) versus bFGF(+)/CCL2(-)", "procedure": "Human iPS cells were cultured under feeder conditions in the same manner as in Example 8, and the number of cells was measured every 48 hours. As a negative control, the same procedures were carried out except that bFGF was added instead of the CCL2. FIG. 17 is a graph showing the change with time in the number of the human iPS cells. The vertical axis indicates the number of cells (10^4 cells/ml), and the horizontal axis indicates the culture time (hr). CCL2(+) indicates the results obtained under the conditions of bFGF(−)/CCL2(+), and CCL2(−) indicates the results obtained under the conditions of bFGF(+)/CCL2(−)."}, "human iPS cells [3]": {"test_system": "human iPS cells", "assay": "EB formation and spontaneous differentiation, cell morphology", "details": "third day from the plating; iPS cells precultured 6 days with the substance", "procedure": "Human iPS cells were cultured for 6 days under feeder conditions in the same manner as in Example 7. Thereafter, embryonic bodies (EBs) were produced. EB formation is known as a spontaneous differentiation-inducing method for inducing the differentiation of iPS cells. Specifically, first, a ROCK inhibitor (Y-27632, WAKO) was added to the culture solution being used for the culture of the human iPS cells so that the concentration thereof was […], and the human iPS cells were cultured for 1 hour under the conditions of 37° C. and 5% CO2. Then, the feeder cells used for the culture were dissociated with a human ES/iPS cell dissociation solution (CTK solution), and the human iPS cells were collected. Then, 1×10^6 of the human iPS cells were seeded in an ultra-low adhesion culture vessel, and cultured for 6 days in an EB preparation medium (DMEM/F12, Knockout SR, L-glutamine, NEAA (non-essential amino acid (GIBCO)), 2-ME, Pen/Strep). The medium was replaced every two days.\nNext, spontaneous differentiation was induced. Specifically, the produced EBs were seeded in gelatin coated dishes so that each gelatin coated dish contained one EB. Each EB was cultured for 14 days in a medium (DMEM) containing 20% FBS, and then observed with a microscope. The medium was replaced every two days. The photographs in FIG. 18 show the cell morphology on the third day from the plating."}, "human iPS cells [4]": {"test_system": "human iPS cells", "assay": "qRT-PCR of undifferentiated marker genes, feeder free versus feeder culture of human iPS cells", "details": "feeder free with CCL2 and LIF, no bFGF, relative to feeder conditions with bFGF", "procedure": "Specifically, human iPS cells were cultured under feeder conditions where bFGF was added and the CCL2 was not added, and under feeder free conditions where bFGF was not added and the CCL2 and LIF were added. Total RNAs then were extracted, and the expressions of undifferentiated marker genes were examined by the qRT-PCR. The culture under the feeder conditions was carried out in the same manner as in Example 8. The culture under the feeder free conditions was carried out in the same manner as in Example 12. Then, assuming that the expression level under the feeder condition was 1, the relative value with respect to this value was calculated as the fold change in expression level under the feeder free conditions.\nFIG. 21 is a graph showing the fold changes in the expression of the undifferentiated marker genes in the human iPS cells. The vertical axis indicates the fold change (-fold), and the horizontal axis indicates the examined undifferentiated marker genes. The open bars show the results obtained under the feeder free conditions, and the solid bars show the results obtained under the feeder conditions."}},
  "data": [
    {"molecule": "B1", "values": [
      {"measurement": "ratio of phosphorylated STAT3 to non-phosphorylated STAT3 (pSTAT3/STAT3), relative value", "setting": "STAT3", "result": "about 7.5 fold"},
      {"measurement": "undifferentiation potency, cell morphology", "setting": "human iPS cells [1]", "result": "little differentiated cells"},
      {"measurement": "number of the cells", "setting": "human iPS cells [2]; as of 48 hours", "result": "greater"},
      {"measurement": "growth potential", "setting": "human iPS cells [2]; as of 144 hours (6th day)", "result": "improved further"},
      {"measurement": "morphology of EB after spontaneous differentiation-inducing culture", "setting": "human iPS cells [3]", "result": "ES cell-like morphology"},
      {"measurement": "expressions of the undifferentiated marker genes, fold change", "setting": "human iPS cells [4]", "result": "comparable"}
    ]}
  ]
}
